Here are results for 44 variants from the Human Domainome abundance scans (Beltran et al. 2025).

± gives the uncertainty stated by the source.

First the molecules themselves.
B1: RUN and FYVE domain-containing protein 1, residues 639 to 698; numbered along this chain, Q96T51 (parent)
chain: WLKDDEATHCRQCEKEFSISRRKHHCRNCGHIFCNTCSSNELALPSYPKPVRVCDSCHTL

The data set covers variants of B1. As to the kind of experiment: abundance fitness (aPCA) (normalised: wild type 0, dead -1); higher = more abundant; growth selection in yeast, the domain comes from the species named. Conditions: Homo sapiens.
For the variant WLKDDEATHCRQCEKEFSISRRKHHDRNCGHIFCNTCSSNELALPSYPKPVRVCDSCHTL [C26D], the abundance fitness is -0.794 ± 0.11. Then WLKDDEATHCRQCEKEFSISRRKHHGRNCGHIFCNTCSSNELALPSYPKPVRVCDSCHTL [C26G], with -0.709 ± 0.072; and WLKDDEATHCRQCEKEFSISRRKHHMRNCGHIFCNTCSSNELALPSYPKPVRVCDSCHTL [C26M], with -0.76 ± 0.094; and WLKDDEATHCRQCEKEFSISRRKHHFRNCGHIFCNTCSSNELALPSYPKPVRVCDSCHTL [C26F], with -0.89 ± 0.14. The same measure for WLKDDEATHCRQCEKEFSISRRKHHLRNCGHIFCNTCSSNELALPSYPKPVRVCDSCHTL [C26L]: -0.763 ± 0.055; for WLKDDEATHCRQCEKEFSISRRKHHIRNCGHIFCNTCSSNELALPSYPKPVRVCDSCHTL [C26I]: -0.866 ± 0.13. For WLKDDEATHCRQCEKEFSISRRKHHSRNCGHIFCNTCSSNELALPSYPKPVRVCDSCHTL [C26S], the abundance fitness is -0.636 ± 0.065. The same measure for WLKDDEATHCRQCEKEFSISRRKHHNRNCGHIFCNTCSSNELALPSYPKPVRVCDSCHTL [C26N]: -0.418 ± 0.12; for WLKDDEATHCRQCEKEFSISRRKHHVRNCGHIFCNTCSSNELALPSYPKPVRVCDSCHTL [C26V]: -0.913 ± 0.082. In the case of WLKDDEATHCRQCEKEFSISRRKHHWRNCGHIFCNTCSSNELALPSYPKPVRVCDSCHTL [C26W], the abundance fitness was -0.748 ± 0.11. The same measure for WLKDDEATHCRQCEKEFSISRRKHHERNCGHIFCNTCSSNELALPSYPKPVRVCDSCHTL [C26E]: -0.655 ± 0.11; for WLKDDEATHCRQCEKEFSISRRKHHPRNCGHIFCNTCSSNELALPSYPKPVRVCDSCHTL [C26P]: -0.508 ± 0.071. WLKDDEATHCRQCEKEFSISRRKHHARNCGHIFCNTCSSNELALPSYPKPVRVCDSCHTL [C26A]: the abundance fitness is -0.694 ± 0.083. Regarding WLKDDEATHCRQCEKEFSISRRKHHTRNCGHIFCNTCSSNELALPSYPKPVRVCDSCHTL [C26T], the abundance fitness is -0.832 ± 0.09. As for WLKDDEATHCRQCEKEFSISRRKHHQRNCGHIFCNTCSSNELALPSYPKPVRVCDSCHTL [C26Q], the abundance fitness was -0.855 ± 0.087.

In the case of WLKDDEATHCRQCEKEFSISRRKHHRRNCGHIFCNTCSSNELALPSYPKPVRVCDSCHTL [C26R], the abundance fitness was -0.804 ± 0.076. Then WLKDDEATHCRQCEKEFSISRRKHHHRNCGHIFCNTCSSNELALPSYPKPVRVCDSCHTL [C26H], with -0.628 ± 0.11. With WLKDDEATHCRQCEKEFSISRRKHHKRNCGHIFCNTCSSNELALPSYPKPVRVCDSCHTL [C26K], the abundance fitness is -0.677 ± 0.12. Consider WLKDDEATHCRQCEKEFSISRRKHHYRNCGHIFCNTCSSNELALPSYPKPVRVCDSCHTL [C26Y], for which the abundance fitness is -0.77 ± 0.13. The same measure for WLKDDEATHCRQCEKEFSISRRKHHCGNCGHIFCNTCSSNELALPSYPKPVRVCDSCHTL [R27G]: 0.153 ± 0.041; for WLKDDEATHCRQCEKEFSISRRKHHCENCGHIFCNTCSSNELALPSYPKPVRVCDSCHTL [R27E]: 0.085 ± 0.058. The same measure for WLKDDEATHCRQCEKEFSISRRKHHCINCGHIFCNTCSSNELALPSYPKPVRVCDSCHTL [R27I]: -0.077 ± 0.052. Consider WLKDDEATHCRQCEKEFSISRRKHHCCNCGHIFCNTCSSNELALPSYPKPVRVCDSCHTL [R27C], for which the abundance fitness is -0.067 ± 0.053. Then WLKDDEATHCRQCEKEFSISRRKHHCPNCGHIFCNTCSSNELALPSYPKPVRVCDSCHTL [R27P], with 0.219 ± 0.053; and WLKDDEATHCRQCEKEFSISRRKHHCTNCGHIFCNTCSSNELALPSYPKPVRVCDSCHTL [R27T], with 0.095 ± 0.037; and WLKDDEATHCRQCEKEFSISRRKHHCSNCGHIFCNTCSSNELALPSYPKPVRVCDSCHTL [R27S], with -0.003 ± 0.039. As for WLKDDEATHCRQCEKEFSISRRKHHCMNCGHIFCNTCSSNELALPSYPKPVRVCDSCHTL [R27M], the abundance fitness came out at 0.019 ± 0.051. With WLKDDEATHCRQCEKEFSISRRKHHCWNCGHIFCNTCSSNELALPSYPKPVRVCDSCHTL [R27W], the abundance fitness was -0.144 ± 0.046. Then WLKDDEATHCRQCEKEFSISRRKHHCHNCGHIFCNTCSSNELALPSYPKPVRVCDSCHTL [R27H], with 0.316 ± 0.053. The same measure for WLKDDEATHCRQCEKEFSISRRKHHCLNCGHIFCNTCSSNELALPSYPKPVRVCDSCHTL [R27L]: 0.069 ± 0.034; for WLKDDEATHCRQCEKEFSISRRKHHCANCGHIFCNTCSSNELALPSYPKPVRVCDSCHTL [R27A]: 0.189 ± 0.048; for WLKDDEATHCRQCEKEFSISRRKHHCKNCGHIFCNTCSSNELALPSYPKPVRVCDSCHTL [R27K]: 0.04 ± 0.082.

Regarding WLKDDEATHCRQCEKEFSISRRKHHCNNCGHIFCNTCSSNELALPSYPKPVRVCDSCHTL [R27N], the abundance fitness was found to be 0 ± 0.088. Then WLKDDEATHCRQCEKEFSISRRKHHCDNCGHIFCNTCSSNELALPSYPKPVRVCDSCHTL [R27D], with 0.072 ± 0.082; and WLKDDEATHCRQCEKEFSISRRKHHCFNCGHIFCNTCSSNELALPSYPKPVRVCDSCHTL [R27F], with 0.176 ± 0.061; and WLKDDEATHCRQCEKEFSISRRKHHCQNCGHIFCNTCSSNELALPSYPKPVRVCDSCHTL [R27Q], with 0.112 ± 0.054. For the variant WLKDDEATHCRQCEKEFSISRRKHHCVNCGHIFCNTCSSNELALPSYPKPVRVCDSCHTL [R27V], the abundance fitness was -0.262 ± 0.038.

Turning to WLKDDEATHCRQCEKEFSISRRKHHCRNCAHIFCNTCSSNELALPSYPKPVRVCDSCHTL [G30A], the abundance fitness is -0.392 ± 0.072. As for WLKDDEATHCRQCEKEFSISRRKHHCRNCHHIFCNTCSSNELALPSYPKPVRVCDSCHTL [G30H], the abundance fitness is -0.428 ± 0.11. The same measure for WLKDDEATHCRQCEKEFSISRRKHHCRNCDHIFCNTCSSNELALPSYPKPVRVCDSCHTL [G30D]: -0.414 ± 0.099; for WLKDDEATHCRQCEKEFSISRRKHHCRNCFHIFCNTCSSNELALPSYPKPVRVCDSCHTL [G30F]: -0.945 ± 0.17; for WLKDDEATHCRQCEKEFSISRRKHHCRNCNHIFCNTCSSNELALPSYPKPVRVCDSCHTL [G30N]: -1.04 ± 0.17. The same measure for WLKDDEATHCRQCEKEFSISRRKHHCRNCEHIFCNTCSSNELALPSYPKPVRVCDSCHTL [G30E]: -0.239 ± 0.067; for WLKDDEATHCRQCEKEFSISRRKHHCRNCMHIFCNTCSSNELALPSYPKPVRVCDSCHTL [G30M]: -0.264 ± 0.046.
